Measured values reported in publication PMC8803948, “TdfH selectively binds metal-loaded tetrameric calprotectin for zinc import” (Communications Biology, 2022).

Molecular target: the molecule itself
Assay: cryo-EM structure; TdfH-CP complex formed on a StrepTactinXT column (CP preincubated with CaCl2 and ZnCl2), eluted with desthiobiotin, in PBS pH 7.4, 0.02% LMNG; Titan Krios 300 kV; 6.1 Å; CP seen as a dimer of S100A8-S100A9 heterodimers (heterotetramer)

B1: human calprotectin (CP), heterodimer of S100A8 and S100A9 (complex)
chain 1: MLTELEKALNSIIDVYHKYSLIKGNFHAVYRDDLKKLLETECPQYIRKKGADVWFKELDINTDGAVNFQEFLILVIKMGVAAHKKSHEESHKE
chain 2: KMSQLERNIETIINTFHQYSVKLGHPDTLNQGEFKELVRKDLQNFLKKENKNEKVIEHIMEDLDTNADKQLSFEEFIMLMARLTWASHEKMHEGDEGPGHHHKPGLGEGTP
notes: S100A8, human, subunit of calprotectin; S100A9, human, subunit of calprotectin; with calcium and zinc it stands as a heterotetramer (two heterodimers) in the cryo-EM complex; also called S100A8-S100A9 heterodimer; copies: 1 + 1
stoichiometry N: 2
